Measurements published in the nanobody polyreactivity screen of Harvey et al. (2022).

Assay: yeast display, Sf9 membrane polyspecificity reagent, FACS + sequencing; frameworks hold sequencing errors
Method in brief: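 Nanobodies from a synthetic yeast display library (Saccharomyces cerevisiae BJ5465), induced 36–48 hours with galactose, were stained 1 hour at 4 °C with 10% biotinylated, detergent-solubilized Sf9 membrane reagent, enriched on streptavidin microbeads, then FACS-sorted. Anti-HA (expression) and streptavidin (reagent binding) fluorescence set low and high (top ~1%) gates. Polyreactivity labels come from the gate of origin. Genes were colony-PCR amplified, MiSeq 2 × 250 sequenced and filtered by CDR length.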
With “QVQLGESGGGFVQAGGLLRLSCAASGRTFRVYAMGWYRQAPGKERELVAAITRGGSTYYADSVKGRFTFSRDNAQNTVYLQMNSLKPEDTAVYSCAADVLRTQPIGWYSHSPLEYWGQGTQVTVSS” the “polyreactivity (PSR sort gate)” value was “high polyreactivity”.
For “QVQLGESGGGIVQAGGSLRLSCAASAFIIKYYAMGWYRPAPGKETELVAAIDGSSASTYYADSVKGRFTISRDNAKNTVYLQMNSLKPEDTAVYYCAVARLRRGGVQYGYWGQGTQVTVSS”, the “polyreactivity (PSR sort gate)” value was “high polyreactivity”.
With “QVQLGESGGGIVQAGGSLRLSCAASGRTFAFNAMGWYRQAPGKERELVAAIRWSGGSTYYADSVKGRFTISRDNAKNTVYLQMNSLKPEDTAVYYCATGKWGYFRYNYWGQGTQVTVSS” the “polyreactivity (PSR sort gate)” value was “high polyreactivity”.
With “QVQLGESGGGLFQAGGSLRLSCAASGFTFVYYAMGWYRQAPGKERELVATISGNGGRTYYADSVKGRFTISRDNAKNTVYLQMNSLKPEDTAVYYCAALLYISSVGYDYWGQGTQVTVSS” the “polyreactivity (PSR sort gate)” value was “low polyreactivity”.
With “QVQLGESGGGLFQAGGSLRLSCAASVRIFKGYNMGWYREAPRKEMELVAAISKSGGRTYYADSVKGRFTISRDNAKNTVYLQMNSQKPVDTAVYYCAARGGCKRPFGYQLQYDYWGQGTQVTVSS” the “polyreactivity (PSR sort gate)” value was “high polyreactivity”.
In the case of “QVQLGESGGGLGQAGGSLSLSCAATGSIFPYNPMGWYRQAPGKERELVATINSRGGRTYYADSVKGRFTISRDNAKNTVYLQMNSLKPEDTAVYYCARYYSSALRYGYWGQGTQVTVSS”, the “polyreactivity (PSR sort gate)” value is reported as “low polyreactivity”.
With “QVQLGESGGGLLQAGGSHSLICADSGSTIRPNAMGWYTQAPGKERELVATIRGGGTSTYYADSVKGRFTISRDNAKNTVYLQLNSLKPEDTAVYYCAARGFYTGSYPGYYYWGQGTQVTVSS” the “polyreactivity (PSR sort gate)” value was “high polyreactivity”.
For “QVQLGESGGGLLQAGGSLRLSCAASGRISSQYAMGLYRQAPWKERELFAAISTSGDRTYYADSVKGRFTISRDNAKNTVYLQMNSLKPEDTAVYYCAKEGPYTYGRDIYEYWGQGTQVTVSS”, the “polyreactivity (PSR sort gate)” value was “low polyreactivity”.
For “QVQLGESGGGLVEAGGSLRLSCAASGSTFNRYAMGWYRQAPGKERELVAAISFSGGRTYYADSVKGRFTISRDNAKNTVYLQMNSLKPEDTAVYYCAKVVYGYFTRAYTYNYWGHGTQVTVSS”, the “polyreactivity (PSR sort gate)” value was “high polyreactivity”.
In the case of “QVQLGESGGGLVQAGGSLLLSCAASGSIFRHYTMGWDSQAPGKERELVAVISSGGNTNYADSVKGRFTISRDNAKNTVYFQMNSLKPEDTAVYYCAARSHRYYSRVNYWGQGTQVTVSS”, the “polyreactivity (PSR sort gate)” value is reported as “high polyreactivity”.
For “QVQLGESGGGLVQAGGSLRLICAASGRIFYRNAMGWYRQAPGKERELVAGISNRGGSTYYADSVKGRFTISRDNAKNTVYLQMNSLKPEDTAVYYCATVPFSPPSAGPEYDYWGQGTQVTVSS”, the “polyreactivity (PSR sort gate)” value was “high polyreactivity”.
In the case of “QVQLGESGGGLVQAGGSLRLSCAASGFIFRAYAMGWYRQAPGKERELVASISSRGGSTYYADSVKGRFTISRDNAKNTVYLQMNSLKPEDTAVYYCNAVYTYFPGWKYDYWGQGTQVTVSS”, the “polyreactivity (PSR sort gate)” value is reported as “high polyreactivity”.
For “QVQLGESGGGLVQAGGSLRLSCAASGFTSVRYAKGWYRQAPGKERELVAAITWNGGSTYYADSVKGRFTISRDNAKKSVYLQMNSLKPEDTAVYYCAKDTPYRYSVAYDYWGQGTQVTVSS”, the “polyreactivity (PSR sort gate)” value was “high polyreactivity”.
With “QVQLGESGGGLVQAGGSLRLSCAASGIIFDTYAMGWYRQAPGKQRELVAVISTRGTSTYYADSVKGRFTISRDNAKNTVYLQMNSLKPEDTEVYYCNAFGRYSYPTFDYWGQGTQVTVSS” the “polyreactivity (PSR sort gate)” value was “high polyreactivity”.
With “QVQLGESGGGLVQAGGSLRLSCAASGIIFYRYAMGWYRQAPGKERELVAAITWSGVSTSYADSVKGRFTISRDNAKNTVYLQMNSLKQEDTAVYYCNKDPGTLYGDMDSWGQGTQVTVSS” the “polyreactivity (PSR sort gate)” value was “low polyreactivity”.
In the case of “QVQLGESGGGLVQAGGSLRLSCAASGRIFGGNAMGRYRQAPGKERELVATISSDGSTNYADSVKGRFTISRDIAKNTVYLQMNSLKPEDTAVYYCAKGFYTLTPHGMDYWGQGTQVTVSS”, the “polyreactivity (PSR sort gate)” value is reported as “low polyreactivity”.
With “QVQLGESGGGLVQAGGSLRLSCAASGRIFNVYAMGWYRQAPGKERELVAAISTGSPTYYADSVKGRFTISRDNAKNTVYLQMNSLKPEDTAVYYCATGYIHGDYWSFRHQYYYWGQGTQVTVSS” the “polyreactivity (PSR sort gate)” value was “low polyreactivity”.
For “QVQLGESGGGLVQAGGSLRLSCAASGRIFSHNAMGWDRQAPGKERELVAVISRSGTGTYYADSVKGRFTISRDNAKNTVYLQMNSLKPEDTAVYYCNTYYEWWYYWGQGTQVTVSS”, the “polyreactivity (PSR sort gate)” value was “high polyreactivity”.
For “QVQLGESGGGLVQAGGSLRLSCAASGRIFSYYAMGWYRPAPGKERELVAAISYRGSSTNYADSVKGRFTISRDNAKNTVYFQMNSLKPEDTAVYYCATKFFRTAYEYWGQGTQVTVSS”, the “polyreactivity (PSR sort gate)” value was “high polyreactivity”.
With “QVQLGESGGGLVQAGGSLRLSCAASGRIFYKNTMGWYRQAPGKERELVAAISWRGGSTYYADSVKGRFTISRDNAKNTVYLQMNSLKPEDTAVYYCNADIWAYKYDYWGQGTQVTVSS” the “polyreactivity (PSR sort gate)” value was “high polyreactivity”.
In the case of “QVQLGESGGGLVQAGGSLRLSCAASGRTCWPYARGWYRQAPGKEMELVAAISRGDRTHYADSVKGRFTISRDNAKKTVYLQMNSLIPEVTAVFYCAADSRYYYYVYKISGDYDSWGQGTHVTVSS”, the “polyreactivity (PSR sort gate)” value is reported as “low polyreactivity”.
With “QVQLGESGGGLVQAGGSLRLSCAASGSIFGSYAMGWYRQAPGKERELVAAISKSGGNTYYADSVKGRFTISRDNAKNTDYLQMNSLKPEDTAVYYCAAYGFYRWRGYDYWGQGTQVTLSS” the “polyreactivity (PSR sort gate)” value was “high polyreactivity”.
For “QVQLGESGGGLVQAGGSLRLSCAASGSIFGYYAMGWYRQAPGKERELVAAINYSGVSTYYADSVKGRFTISRDNAKNTVYLQMNSLKPEDTAVYYCAALRLYEPGPYGGPLRYGYWGQGTQVTVSS”, the “polyreactivity (PSR sort gate)” value was “high polyreactivity”.
For “QVQLGESGGGLVQAGGSLRLSCAASGSIFIGNAMGWYRQAPGKERELVAAITGRGGRTYYADSVKGRFTISRDNAKNTVYLQMNSLKTEDTAVYYCNAVARQFLYGYWGEGTQVTVSS”, the “polyreactivity (PSR sort gate)” value was “high polyreactivity”.
In the case of “QVQLGESGGGLVQAGGSLRLSCAASGSIFKWYAMGWYRQAPGKERELVAAISASGGSTYYADSVKGRFTISRDNAKNSVYLQMNSLKPEDTAVYYCNTDHYYSSRHYDYWGQGTQVTVSS”, the “polyreactivity (PSR sort gate)” value is reported as “low polyreactivity”.
For “QVQLGESGGGLVQAGGSLRLSCAASGSIFRRYARGWYRQAPGKERELVAAISSSGGRTYYADSVKGRFTISRDNAKNTVYLQMNSLKPEETAVYYCAKDTYGFAANRPAGDGYWGQGTQVTVSS”, the “polyreactivity (PSR sort gate)” value was “high polyreactivity”.
In the case of “QVQLGESGGGLVQAGGSLRLSCAASGSTFERYSMGWYRQAPGKERELDAAINWSGGGTYYADSVKGRFTISRDNAKNTVYLQMNSLKPEDTAVYYCAADSGNVVFSLWWYEYYYWGQGTQVTVSS”, the “polyreactivity (PSR sort gate)” value is reported as “low polyreactivity”.
For “QVQLGESGGGLVQAGGSLRLSCAASGSTFPRYVMGWYRQAPGKERELVAAISSSSGRTFYADSVKGRFTISRDNAKNTVYLQMNSLKPEDTAVYYCAARTSFNVHYWGQGTQVTVSS”, the “polyreactivity (PSR sort gate)” value was “high polyreactivity”.
In the case of “QVQLGESGGGLVQAGGSLRLSCAASGSTFSCYAMGWYRQAPGKEREFVAAISWSGGSTYYADSVKGRFTISRDTAKNTVYLQMNSLKPEDTEVYYCAATRRGPYWWFGYDYWGQGTQVTVSS”, the “polyreactivity (PSR sort gate)” value is reported as “high polyreactivity”.
For “QVQLGESGGGLVQAGGSLRLSCAASGSTFYPYAIGWYRQAPGKERELVARITRGDGSTYYADSVKGRFTISRDNAKNTVYVQMNSLKPEDTAVYYCIRVEYYTVWGYDYWGQGTQVTVSS”, the “polyreactivity (PSR sort gate)” value was “low polyreactivity”.
With “QVQLGESGGGLVQAGGSLRLSCAASGYIFRIYAMGGYRQAPGKERELVAAISRSGGSTSYADSVKGRFTISRDTAKNTVYLQMNSLKPEDTAVYYCATEIRPSRIAQYDYWGQGTQVTVSS” the “polyreactivity (PSR sort gate)” value was “high polyreactivity”.
With “QVQLGESGGGLVQAGGSLRLSCSASMGWNSQAPGKERELVAITRTTRTYYADSVKGRFTISRDNAKNTVYLQMNSLKPEDTAVYYCAAPNGPSPYWYNYWGQGTQVTVSS” the “polyreactivity (PSR sort gate)” value was “low polyreactivity”.
For “QVQLGESGGGLVQAGGSLRLTCAAYGRIYGGNAMGWYRQATGKEWELDAGISRRGGSTYYADSVKGRFTISRDNEKNTVYLQMNRLKPEDTAVYYCYAYYRYSVFAEKYDYWGQGTHVTVSS”, the “polyreactivity (PSR sort gate)” value was “high polyreactivity”.
With “QVQLGESGGGLVQAGGTLRVSCAPSGITFYGYAMGWYRQAPGKERELVAAINRGGTGTYYADSVKGRFTISRDNAKNTVYLQMNSLKPEDTAVYYCNKAGYPIADPTAGKRQFDNWGHGTQVTVSS” the “polyreactivity (PSR sort gate)” value was “low polyreactivity”.
With “QVQLGESGGGLVQSGGSLRLSCAASGRTFCYYAMGWYRQAPGKERELVAAITNRGGNKYYADSVKGRFTISRDNAKNTVYLQMNSLKPEDTAVYYCAAYNRIYGYHTLYYWGQGTQVTVSS” the “polyreactivity (PSR sort gate)” value was “high polyreactivity”.
In the case of “QVQLGESGRGLVQEGGSLGLICAASGGIFKYNAMGWYRQAPGKERELVAAIRSTGSTYADSVKGRFTISRDNAKNTVYLQMNSLKPEDTAVYYCAAQYWRRKKYYYWGQGTQVTVSS”, the “polyreactivity (PSR sort gate)” value is reported as “high polyreactivity”.
With “QVQLGESRRGLVQAGGSLRLSCAASGITFWYNATGWYRQSPGKERELDAAISRSAGSTYYADSVKGRFTISRDNAKNTVYLQMNSLKPEDTAVYYCAAKTPGRYYYWGQGTQVTVSS” the “polyreactivity (PSR sort gate)” value was “high polyreactivity”.
In the case of “QVQLHESGGGLVQAGGSLRLSCAASGTISYAGPMGWYRQAPGKEREFVAAIGVGSNTNYADSVKGRYTIIRDNAKNTVYLQMNSLKPEDTAVYYCAVGGYAPLGRPYWCQGTQVTVSS”, the “polyreactivity (PSR sort gate)” value is reported as “low polyreactivity”.
For “QVQLHESGGGLVQAGGSLRMSCAASGTISVTYNKGWYRQAPGKEREFVAGNSTGATTNYADSVKGRFTISRDNAKNCVYLQMNSLKPDDTAVYYCAAHIYRQDHFYYWGQGTQVTVSS”, the “polyreactivity (PSR sort gate)” value was “low polyreactivity”.
In the case of “QVQLHESGGGLVQSGGSLRLSCAASGTISYAGPMGWYPQAPGKEREFVAGIGVGSNTNYADSVKGRYTIIRDNAKNTVYLQMNSLKPVDTAVYYCAVGGYAPLGRPYCGQGTQVTVSS”, the “polyreactivity (PSR sort gate)” value is reported as “low polyreactivity”.
With “QVQLHESGGGMVQAGGSLRLSCAASGTISYAGPMGWYRQAPGKEREFVAGIGVGSNTNYADSVKGRYTIIRDNAKNTVYLKMNSLKPEDTAVYYCGVGVYAQLGRPYWGQGTQVTVSS” the “polyreactivity (PSR sort gate)” value was “low polyreactivity”.
